In patent US20210246223A1 (CRD PHARMACEUTICALS, published 2021):

Columns and labels:
EGFR = target: T1, EGFR (UniProt P00533 25-645, limits assumed); assay: ELISA, plate coated with 1 µg/ml EGFR, increasing concentration of 29Z6
T1 construct: Coated on the ELISA plate at 1 µg/ml and also used in the western blot; also called HER1; ErbB1
Protocol: (§1) ELISA plate was coated with 1 μg/ml of EGFR, HER2, or extracellular domain of HER3. The ELISA was incubated with increasing concentration of 29Z6 followed by incubation with HRP-goat-anti mouse IgG to detect 29Z6 antibody binding. […] Confirmation of the binding specificity was undertaken using western blotting. Only HER3 was bound to 29Z6 while EGFR or HER2 didn't (FIG. 10).

HER2 = target: T2, HER2 (UniProt P04626 23-652, limits assumed); assay: ELISA, plate coated with 1 µg/ml HER2, increasing concentration of 29Z6
T2 construct: Coated on the ELISA plate at 1 µg/ml and also used in the western blot; also called ErbB2; Neu
Protocol: as §1

[1] = target: T3, HER3-Fc fusion comprising the extracellular domain (aa 20-643) of human HER3 (human, UniProt P21860 20-643); assay: ELISA, HER3-Fc coated at 1 µg/ml, serial dilution of IgG 29Z6, anti-mouse Fc-HRP detection
T3 construct: range 20-643; also called human HER3-Fc fusion protein
Protocol: Antigen binding of IgG 29Z6 was analyzed in ELISA using immobilized HER3-Fc fusion comprising the extracellular domain (aa 20-643) of human HER3. The HER3-Fc fusion protein was coated onto polystyrene microtiter plates at 1 μg/ml in PBS. Remaining binding sites were blocked with PBS, 2% skimmed milk (MPBS). Plates were then incubated with a serial dilution of IgG 29Z6 in MPBS. After washing, bound antibody was detected with an HRP-conjugated anti-mouse Fc antibody and TMB, H₂O₂ as substrate.

[2] = target: T4, extracellular domain of HER3 (human, UniProt P21860 20-643); assay: SPR (Biacore 3000), HER3 extracellular domain amine-coupled on CM5, 29Z6 mAb as analyte, 1:1 model, 25° C.
T4 construct: extracellular domain; also called purified extracellular domain of HER3; HER3 receptor ectodomain
Protocol: (§2) The binding kinetics of the 29Z6 mAb was analysed by surface plasmon resonance (SPR) using a Biacore3000 optical sensor platform equipped with research-grade CM5 sensor (GE Healthcare Bio-Sciences Corp., Piscataway, N.J.). Purified extracellular domain of HER3 was immobilized on the sensor chip surface of a carboxylated dextran-coated gold film using the standard amine coupling kit following the manufacturer's protocol. Briefly, 70 μL of a mixed solution of NHS/EDC (1:1, v/v) was injected to activate the carboxylated dextran, followed by manual injection of protein in 10 mM NaOAc (pH 4.5) until the desired surface density was reached. Ethanolamine 1 M in water (pH 8.5) was then injected to de-activate residual NHS-esters on the sensor chip. […] Kinetic data were evaluated by globally fitting the sensorgrams to a simple 1:1 interaction model using the Biacore software BiaEvaluation version 4.1 (GE Healthcare Bio-Sciences Corp.). The equilibrium KDs were determined from the resulting kinetic association and dissociation rates (kd/ka), and a minimum of nine independent runs were used to generate the reported standard deviations. A 1:1 binding model was used together with experimentally determined RMax as fixed parameter to determine association rate constant (ka), dissociation rate constant (kd), and equilibrium dissociation constant (KD). […]

[3] = target: T4, extracellular domain of HER3; assay: SPR (Biacore 3000), HER3 extracellular domain amine-coupled on CM5, 29Z6 mAb 0.1-300 nM as analyte, 1:1 model, 25° C.
Protocol: as §2

T4 sequence (P21860 20-643): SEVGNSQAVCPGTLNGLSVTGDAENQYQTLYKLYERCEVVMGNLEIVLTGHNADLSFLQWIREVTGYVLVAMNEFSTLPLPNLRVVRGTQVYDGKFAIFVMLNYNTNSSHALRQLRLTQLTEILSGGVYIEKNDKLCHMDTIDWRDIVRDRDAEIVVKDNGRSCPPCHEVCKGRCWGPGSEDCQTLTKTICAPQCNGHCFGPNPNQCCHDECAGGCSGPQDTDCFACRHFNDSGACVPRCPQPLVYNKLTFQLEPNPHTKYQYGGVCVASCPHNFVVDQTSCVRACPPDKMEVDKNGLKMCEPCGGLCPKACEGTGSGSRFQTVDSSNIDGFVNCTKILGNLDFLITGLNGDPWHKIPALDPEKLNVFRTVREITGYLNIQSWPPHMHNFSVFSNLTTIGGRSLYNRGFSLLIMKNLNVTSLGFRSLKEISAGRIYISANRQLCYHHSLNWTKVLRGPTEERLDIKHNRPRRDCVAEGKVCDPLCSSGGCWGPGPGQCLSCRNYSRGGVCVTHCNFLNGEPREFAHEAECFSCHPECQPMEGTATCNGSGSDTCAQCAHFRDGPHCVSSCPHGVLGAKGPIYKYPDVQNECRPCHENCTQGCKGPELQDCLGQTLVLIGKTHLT
T3 sequence (P21860 20-643 limits assumed): as the sequence (P21860 20-643) above

binding result (EGFR): no binding | binding result (HER2): no binding | EC50 [1]: 0.88 nM | koff [2]: 0.000295 s⁻¹ | kon [2]: 188000 M⁻¹ s⁻¹ | Kd [3]: 0.8 nM
B1: anti-HER3 monoclonal antibody 29Z6 (antibody, mouse IgG2a, kappa, V domains shown)
VH: EVQLQESGPSLVKPSQTLSLTCYVTGDSITSGYWNWIRKFPGNKLEYMGYINYSGSTYYNPSLKSRISIIRDTSQNHYNLLLNSVTTEDTATYYCARLGTYYRYAGAMDYWGQGTSVTVSS
VL: DDVLTQTPLSLPVSLGDQASISCRSSQSLVHSNGNTYLHWYLQKPGQSPKLLIYKVSNRFSGVPDRFSGSGSGTDFTLKISRVEAEDLGVYFCSQSTHVPYTFGGGTKLEIKR
notes: also called IgG 29Z6; 29Z6 mAb
